Source: article PMC7367873, “Dissecting the sequence determinants for dephosphorylation by the catalytic subunits of phosphatases PP1 and PP2A” (Nature Communications, 2020)

Key:
[1] = system: GFP-14-3-3β; assay: GFP-14-3-3β co-IP with LC-MS/MS, untreated GFP-14-3-3β versus GFP control (14-3-3 interactome); format: binding, human; settings: GFP-14-3-3β co-IP LC-MS/MS; untreated vs GFP; student's t-test; label-free quantification, 3 replicates each
[2] = system: GFP-14-3-3β and its binding proteins; assay: GFP-14-3-3β co-IP with LC-MS/MS label-free quantification, untreated versus PP1c-treated; design: species or system human; settings: GFP-14-3-3β co-IP LC-MS/MS; PP1 vs untreated; student's t-test; label-free quantification, 3 replicates each

Molecule	Difference (log2), untreated vs GFP [1] [log2]	Difference (log2), PP1 vs untreated [2] [log2]
LMNA (protein, UniProt P02545 1-661, looked up) Prelamin-A/C: METPSQRRATRSGAQASSTPLSPTRITRLQEKEDLQELNDRLAVYIDRVRSLETENAGLRLRITESEEVVSREVSGIKAAYEAELGDARKTLDSVAKERARLQLELSKVREEFKELKARNTKKEGDLIAAQARLKDLEALLNSKEAALSTALSEKRTLEGELHDLRGQVAKLEAALGEAKKQLQDEMLRRVDAENRLQTMKEELDFQKNIYSEELRETKRRHETRLVEIDNGKQREFESRLADALQELRAQHEDQVEQYKKELEKTYSAKLDNARQSAERNSNLVGAAHEELQQSRIRIDSLSAQLSQLQKQLAAKEAKLRDLEDSLARERDTSRRLLAEKEREMAEMRARMQQQLDEYQELLDIKLALDMEIHAYRKLLEGEEERLRLSPSPTSQRSRGRASSHSSQTQGGGSVTKKRKLESTESRSSFSQHARTSGRVAVEEVDEEGKFVRLRNKSNEDQSMGNWQIKRQNGDDPLLTYRFPPKFTLKAGQVVTIWAAGAGATHSPPTDLVWKAQNTWGCGNSLRTALINSTGEEVAMRKLVRSVTVVEDDEDEDGDDLLHHHHGSHCSSSGDPAEYNLRSRTVLCGTCGQPADKASASGSGAQVGGPISSGSSASSVTVTRSYRSVGGSGGGSFGDNLVTRSYLLGNSSPRTQSPQNC	-0.3549	-0.4623
WDR3 (protein, UniProt Q9UNX4 1-943, looked up) WD repeat-containing protein 3: MGLTKQYLRYVASAVFGVIGSQKGNIVFVTLRGEKGRYVAVPACEHVFIWDLRKGEKILILQGLKQEVTCLCPSPDGLHLAVGYEDGSIRIFSLLSGEGNVTFNGHKAAITTLKYDQLGGRLASGSKDTDIIVWDVINESGLYRLKGHKDAITQALFLREKNLLVTSGKDTMVKWWDLDTQHCFKTMVGHRTEVWGLVLLSEEKRLITGASDSELRVWDIAYLQEIEDPEEPDPKKIKGSSPGIQDTLEAEDGAFETDEAPEDRILSCRKAGSIMREGRDRVVNLAVDKTGRILACHGTDSVLELFCILSKKEIQKKMDKKMKKARKKAKLHSSKGEEEDPEVNVEMSLQDEIQRVTNIKTSAKIKSFDLIHSPHGELKAVFLLQNNLVELYSLNPSLPTPQPVRTSRITIGGHRSDVRTLSFSSDNIAVLSAAADSIKIWNRSTLQCIRTMTCEYALCSFFVPGDRQVVIGTKTGKLQLYDLASGNLLETIDAHDGALWSMSLSPDQRGFVTGGADKSVKFWDFELVKDENSTQKRLSVKQTRTLQLDEDVLCVSYSPNQKLLAVSLLDCTVKIFYVDTLKFFLSLYGHKLPVICMDISHDGALIATGSADRNVKIWGLDFGDCHKSLFAHDDSVMYLQFVPKSHLFFTAGKDHKIKQWDADKFEHIQTLEGHHQEIWCLAVSPSGDYVVSSSHDKSLRLWERTREPLILEEEREMEREAEYEESVAKEDQPAVPGETQGDSYFTGKKTIETVKAAERIMEAIELYREETAKMKEHKAICKAAGKEVPLPSNPILMAYGSISPSAYVLEIFKGIKSSELEESLLVLPFSYVPDILKLFNEFIQLGSDVELICRCLFFLLRIHFGQITSNQMLVPVIEKLRETTISKVSQVRDVIGFNMAGLDYLKRECEAKSEVMFFADATSHLEEKKRKRKKREKLILTLT	0.8072	-0.4911
HNRNPH1 (protein, UniProt P31943 1-449, looked up) Heterogeneous nuclear …: MMLGTEGGEGFVVKVRGLPWSCSADEVQRFFSDCKIQNGAQGIRFIYTREGRPSGEAFVELESEDEVKLALKKDRETMGHRYVEVFKSNNVEMDWVLKHTGPNSPDTANDGFVRLRGLPFGCSKEEIVQFFSGLEIVPNGITLPVDFQGRSTGEAFVQFASQEIAEKALKKHKERIGHRYIEIFKSSRAEVRTHYDPPRKLMAMQRPGPYDRPGAGRGYNSIGRGAGFERMRRGAYGGGYGGYDDYNGYNDGYGFGSDRFGRDLNYCFSGMSDHRYGDGGSTFQSTTGHCVHMRGLPYRATENDIYNFFSPLNPVRVHIEIGPDGRVTGEADVEFATHEDAVAAMSKDKANMQHRYVELFLNSTAGASGGAYEHRYVELFLNSTAGASGGAYGSQMMGGMGLSNQSSYGGPASQQLSGGYGGGYGGQSSMSGYDQVLQENSSDFQSNIA	0.1701	-0.5044
UBTF (protein, UniProt P17480 1-764, looked up) Nucleolar transcription …: MNGEADCPTDLEMAAPKGQDRWSQEDMLTLLECMKNNLPSNDSSKFKTTESHMDWEKVAFKDFSGDMCKLKWVEISNEVRKFRTLTELILDAQEHVKNPYKGKKLKKHPDFPKKPLTPYFRFFMEKRAKYAKLHPEMSNLDLTKILSKKYKELPEKKKMKYIQDFQREKQEFERNLARFREDHPDLIQNAKKSDIPEKPKTPQQLWYTHEKKVYLKVRPDATTKEVKDSLGKQWSQLSDKKRLKWIHKALEQRKEYEEIMRDYIQKHPELNISEEGITKSTLTKAERQLKDKFDGRPTKPPPNSYSLYCAELMANMKDVPSTERMVLCSQQWKLLSQKEKDAYHKKCDQKKKDYEVELLRFLESLPEEEQQRVLGEEKMLNINKKQATSPASKKPAQEGGKGGSEKPKRPVSAMFIFSEEKRRQLQEERPELSESELTRLLARMWNDLSEKKKAKYKAREAALKAQSERKPGGEREERGKLPESPKRAEEIWQQSVIGDYLARFKNDRVKALKAMEMTWNNMEKKEKLMWIKKAAEDQKRYERELSEMRAPPAATNSSKKMKFQGEPKKPPMNGYQKFSQELLSNGELNHLPLKERMVEIGSRWQRISQSQKEHYKKLAEEQQKQYKVHLDLWVKSLSPQDRAAYKEYISNKRKSMTKLRGPNPKSSRTTLQSKSESEEDDEEDEDDEDEDEEEEDDENGDSSEDGGDSSESSSEDESEDGDENEEDDEDEDDDEDDDEDEDNESEGSSSSSSSSGDSSDSDSN	1.529	-0.5334
KANK2 (protein, UniProt Q63ZY3 1-851, looked up) KN motif and ankyrin repeat …: MAQVLHVPAPFPGTPGPASPPAFPAKDPDPPYSVETPYGYRLDLDFLKYVDDIEKGHTLRRVAVQRRPRLSSLPRGPGSWWTSTESLCSNASGDSRHSAYSYCGRGFYPQYGALETRGGFNPRVERTLLDARRRLEDQAATPTGLGSLTPSAAGSTASLVGVGLPPPTPRSSGLSTPVPPSAGHLAHVREQMAGALRKLRQLEEQVKLIPVLQVKLSVLQEEKRQLTVQLKSQKFLGHPTAGRGRSELCLDLPDPPEDPVALETRSVGTWVRERDLGMPDGEAALAAKVAVLETQLKKALQELQAAQARQADPQPQAWPPPDSPVRVDTVRVVEGPREVEVVASTAAGAPAQRAQSLEPYGTGLRALAMPGRPESPPVFRSQEVVETMCPVPAAATSNVHMVKKISITERSCDGAAGLPEVPAESSSSPPGSEVASLTQPEKSTGRVPTQEPTHREPTRQAASQESEEAGGTGGPPAGVRSIMKRKEEVADPTAHRRSLQFVGVNGGYESSSEDSSTAENISDNDSTENEAPEPRERVPSVAEAPQLRPAGTAAAKTSRQECQLSRESQHIPTAEGASGSNTEEEIRMELSPDLISACLALEKYLDNPNALTERELKVAYTTVLQEWLRLACRSDAHPELVRRHLVTFRAMSARLLDYVVNIADSNGNTALHYSVSHANFPVVQQLLDSGVCKVDKQNRAGYSPIMLTALATLKTQDDIETVLQLFRLGNINAKASQAGQTALMLAVSHGRVDVVKALLACEADVNVQDDDGSTALMCACEHGHKEIAGLLLAVPSCDISLTDRDGSTALMVALDAGQSEIASMLYSRMNIKCSFAPMSDDESPTSSSAEE	1.477	-0.5359
CCDC47 (protein, UniProt Q96A33 21-483, looked up) PAT complex subunit CCDC47: KFDDFEDEEDIVEYDDNDFAEFEDVMEDSVTESPQRVIITEDDEDETTVELEGQDENQEGDFEDADTQEGDTESEPYDDEEFEGYEDKPDTSSSKNKDPITIVDVPAHLQNSWESYYLEILMVTGLLAYIMNYIIGKNKNSRLAQAWFNTHRELLESNFTLVGDDGTNKEATSTGKLNQENEHIYNLWCSGRVCCEGMLIQLRFLKRQDLLNVLARMMRPVSDQVQIKVTMNDEDMDTYVFAVGTRKALVRLQKEMQDLSEFCSDKPKSGAKYGLPDSLAILSEMGEVTDGMMDTKMVHFLTHYADKIESVHFSDQFSGPKIMQEEGQPLKLPDTKRTLLFTFNVPGSGNTYPKDMEALLPLMNMVIYSIDKAKKFRLNREGKQKADKNRARVEENFLKLTHVQRQEAAQSRREEKKRAEKERIMNEEDPEKQRRLEEAALRREQKKLEKKQMKMKQIKVKAM	1.192	-0.5387
FARSA (protein, UniProt Q9Y285 2-508, looked up) Phenylalanine--tRNA ligase …: ADGQVAELLLRRLEASDGGLDSAELAAELGMEHQAVVGAVKSLQALGEVIEAELRSTKHWELTAEGEEIAREGSHEARVFRSIPPEGLAQSELMRLPSGKVGFSKAMSNKWIRVDKSAADGPRVFRVVDSMEDEVQRRLQLVRGGQAEKLGEKERSELRKRKLLAEVTLKTYWVSKGSAFSTSISKQETELSPEMISSGSWRDRPFKPYNFLAHGVLPDSGHLHPLLKVRSQFRQIFLEMGFTEMPTDNFIESSFWNFDALFQPQQHPARDQHDTFFLRDPAEALQLPMDYVQRVKRTHSQGGYGSQGYKYNWKLDEARKNLLRTHTTSASARALYRLAQKKPFTPVKYFSIDRVFRNETLDATHLAEFHQIEGVVADHGLTLGHLMGVLREFFTKLGITQLRFKPAYNPYTEPSMEVFSYHQGLKKWVEVGNSGVFRPEMLLPMGLPENVSVIAWGLSLERPTMIKYGINNIRELVGHKVNLQMVYDSPLCRLDAEPRPPPTQEAA	1.078	-0.541
FUS (protein, UniProt P35637 1-526, looked up) RNA-binding protein FUS: MASNDYTQQATQSYGAYPTQPGQGYSQQSSQPYGQQSYSGYSQSTDTSGYGQSSYSSYGQSQNTGYGTQSTPQGYGSTGGYGSSQSSQSSYGQQSSYPGYGQQPAPSSTSGSYGSSSQSSSYGQPQSGSYSQQPSYGGQQQSYGQQQSYNPPQGYGQQNQYNSSSGGGGGGGGGGNYGQDQSSMSSGGGSGGGYGNQDQSGGGGSGGYGQQDRGGRGRGGSGGGGGGGGGGYNRSSGGYEPRGRGGGRGGRGGMGGSDRGGFNKFGGPRDQGSRHDSEQDNSDNNTIFVQGLGENVTIESVADYFKQIGIIKTNKKTGQPMINLYTDRETGKLKGEATVSFDDPPSAKAAIDWFDGKEFSGNPIKVSFATRRADFNRGGGNGRGGRGRGGPMGRGGYGGGGSGGGGRGGFPSGGGGGGGQQRAGDWKCPNPTCENMNFSWRNECNQCKAPKPDGPGGGPGGSHMGGNYGDDRRGGRGGYDRGGYRGRGGDRGGFRGGRGGGDRGGFGPGKMDSRGEHRQDRRERPY	-0.2742	-0.548
